The values that follow come from US20230357341A1.

The target in test [1] is T1, cat EPOR expressed on Ba/F3 cells (BaF3/cat EPOR) (cat).
T1 sequence: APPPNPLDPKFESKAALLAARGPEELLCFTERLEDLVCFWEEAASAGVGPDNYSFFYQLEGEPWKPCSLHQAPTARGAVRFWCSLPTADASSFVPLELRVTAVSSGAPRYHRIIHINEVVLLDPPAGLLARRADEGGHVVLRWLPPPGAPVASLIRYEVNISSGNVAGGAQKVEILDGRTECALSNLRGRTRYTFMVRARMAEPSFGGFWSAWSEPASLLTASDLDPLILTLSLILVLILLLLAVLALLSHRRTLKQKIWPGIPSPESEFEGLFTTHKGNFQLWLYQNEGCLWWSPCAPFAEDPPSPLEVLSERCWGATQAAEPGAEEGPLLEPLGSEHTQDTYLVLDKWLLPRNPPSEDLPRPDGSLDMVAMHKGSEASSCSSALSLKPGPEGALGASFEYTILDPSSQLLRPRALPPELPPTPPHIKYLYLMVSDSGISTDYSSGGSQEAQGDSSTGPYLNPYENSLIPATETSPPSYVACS

Test [2] addresses T2, mouse EPOR expressed on Ba/F3 cells (BaF3/mouse EPOR) (mouse) (UniProt P14753).
T2 sequence: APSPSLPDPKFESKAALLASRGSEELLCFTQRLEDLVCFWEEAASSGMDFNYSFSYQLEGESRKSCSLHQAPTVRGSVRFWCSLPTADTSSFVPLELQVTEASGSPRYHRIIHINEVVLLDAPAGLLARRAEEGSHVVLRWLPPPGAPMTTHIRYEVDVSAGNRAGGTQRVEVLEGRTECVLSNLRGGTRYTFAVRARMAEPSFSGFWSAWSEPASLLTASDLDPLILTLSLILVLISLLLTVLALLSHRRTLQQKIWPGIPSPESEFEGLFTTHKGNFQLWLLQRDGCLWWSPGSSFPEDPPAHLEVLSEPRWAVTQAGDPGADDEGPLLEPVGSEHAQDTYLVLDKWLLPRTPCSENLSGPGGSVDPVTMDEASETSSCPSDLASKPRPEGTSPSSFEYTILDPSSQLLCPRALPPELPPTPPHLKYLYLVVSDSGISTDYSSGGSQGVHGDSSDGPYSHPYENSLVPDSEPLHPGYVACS

In the case of “wild-type cat EPO-His (fusion protein of cat EPO and His tag) (from UniProt P33708 27-192) (ligand)”, the EC50 (read off the curve), BaF3/cat EPOR cell proliferation in test [1] amounted to 0.03 nM. In addition, in test [2], the EC50 (read off the curve), BaF3/mouse EPOR cell proliferation is 0.04 nM.
“human EPO (PeproTech) (from UniProt P01588 28-193) (ligand)” displayed an EC50 (read off the curve), BaF3/cat EPOR cell proliferation in test [1] of 0.02 nM.

B1: cat EPO-Fc (C165R cat EPO-siCFV3) of Examples 12 and 13 (Fc fusion, not shown: small tags and cut ends)
chain: APPRLICDSRVLERYILEAREAENVTMGCAEGCSFSENITVPDTKVNFYTWKRMDVGQQAVEVWQGLALLSEAILRGQALLANSSQPSETLQLHVDKAVSSLRSLTSLLRALGAQKEATSLPEATSAAPLRTFTVDTLRKLFRIYSNFLRGKLTLYTGEACRRGDRPPEMRRGPKIFIFPPKPKDTLSISRTPEVTCLVVDLGPDDSDVQITWFVDNTQVYTAKTSPREEQFNSTYRVVSVLPILHQDWLKGKEFKCKVNSKSLPSPIERTISKAKGQPHEPQVYVLPPAQEELSRNKVSVTCLIKSFHPPDIAVEWEITGQPEPENNYRTTPPQLDSDGTYFVYSKLSVDRSHWQRGNTYTCSVLHEALHAHHTRKELTQSPGK
As to B1, the EC50 (read off the curve), BaF3/cat EPOR cell proliferation in test [1] is 0.02 nM. The EC50 (read off the curve), BaF3/mouse EPOR cell proliferation in test [2] amounted to 0.05 nM.

B2: wild-type mouse EPO-His (fusion protein of mouse EPO and His tag) (ligand)
chain: APPRLICDSRVLERYILEAKEAENVTMGCAEGPRLSENITVPDTKVNFYAWKRMEVEEQAIEVWQGLSLLSEAILQAQALLANSSQPPETLQLHIDKAISGLRSLTSLLRVLGAQKELMSPPDTTPPAPLRTLTVDTFCKLFRVYANFLRGKLKLYTGEVCRRGDRGAAHHHHHHHHH
B2 gave an EC50 (read off the curve), BaF3/mouse EPOR cell proliferation in test [2] of 0.05 nM.
